Reference: paper doi:10.1101/477745

Target: Era fused to SB (small bit of luciferase) (S. aureus) (UniProt Q2FGF6)
Assay: split reporter

Sequence of Era fused to SB (small bit of luciferase) (S. aureus) (Q2FGF6 whole entry, the tested form may be a part): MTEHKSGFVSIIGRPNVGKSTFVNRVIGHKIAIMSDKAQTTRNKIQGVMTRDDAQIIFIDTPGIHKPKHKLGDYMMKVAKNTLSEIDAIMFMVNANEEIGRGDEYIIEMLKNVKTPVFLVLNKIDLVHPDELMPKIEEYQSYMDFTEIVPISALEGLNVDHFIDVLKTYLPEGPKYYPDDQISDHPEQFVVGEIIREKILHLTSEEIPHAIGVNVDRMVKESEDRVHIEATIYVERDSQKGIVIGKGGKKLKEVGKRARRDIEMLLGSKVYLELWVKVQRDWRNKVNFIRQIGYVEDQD
Sequence of YbeY (split luciferase fusion) (natural protein) (A5IT98 whole entry, the tested form may be a part): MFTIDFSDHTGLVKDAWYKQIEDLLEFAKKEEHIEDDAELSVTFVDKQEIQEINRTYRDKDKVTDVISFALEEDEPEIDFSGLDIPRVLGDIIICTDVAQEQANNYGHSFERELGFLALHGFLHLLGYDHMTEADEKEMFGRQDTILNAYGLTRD

Substance: YbeY (split luciferase fusion) (natural protein)
- luminescence relative to the control (x above the control): 2
